In this data set the target is T1, alphaS1-casein, P02662.
T1 chain: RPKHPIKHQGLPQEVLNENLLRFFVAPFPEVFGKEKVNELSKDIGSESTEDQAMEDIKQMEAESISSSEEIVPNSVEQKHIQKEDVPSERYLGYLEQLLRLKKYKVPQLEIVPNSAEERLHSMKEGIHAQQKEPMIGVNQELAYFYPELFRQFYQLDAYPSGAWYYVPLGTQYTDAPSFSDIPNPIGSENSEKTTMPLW

B1: aspartic protease or coagulant or chymosin represented by SEQ ID NO: 1 (protein)
chain: GKIAREPLTNYLDTEYFGKIQIGSPPQEFTVVFDTGSSDLWVPSVFCNSDACQNHHRFNPSKSSTFQNMNRPLSIQYGTGSMQGFLGYDTVTVSNIVVPHQTVGLSTQEPGDIFTYSEFDGILGLAYPSLASQYSVPVFDNMMKQHLVAQDLFSVYMNSQGQGSMLILGAIDPSYYVGALHWVPVTVQQYWQFTVDRITVDGVVVACDGGCQAILDTGTSLLVGPSSDILNIQTVIGATQGQYGEFDIDCGSLRSKPTVVFEINGREYPLPPTAYTNQDQGFCTSGFQGDDSQQWVLGDVFIREYYSVFDRVNNRVGLAKAI
The protein B1 had a Degradation of intact alphaS1-casein (% of reference A) (% of reference A) of 135.

B2: camel chymosin (CHY-MAX M from Chr. Hansen A/S) (protein)
chain: GKVAREPLTSYLDSQYFGKIYIGTPPQEFTVVFDTGSSDLWVPSIYCKSNVCKNHHRFDPRKSSTFRNLGKPLSIHYGTGSMEGFLGYDTVTVSNIVDPNQTVGLSTEQPGEVFTYSEFDGILGLAYPSLASEYSVPVFDNMMDRHLVARDLFSVYMDRNGQGSMLTLGAIDPSYYTGSLHWVPVTLQQYWQFTVDSVTINGVAVACVGGCQAILDTGTSVLFGPSSDILKIQMAIGATENRYGEFDVNCGNLRSMPTVVFEINGRDYPLSPSAYTSKDQGFCTSGFQGDNNSELWILGDVFIREYYSVFDRANNRVGLAKAI
In turn, B2 had a Degradation of intact alphaS1-casein (% of reference A) (% of reference A) of 38.

B3: aspartic protease or coagulant or chymosin represented by SEQ ID NO: 3 (protein)
chain: GEAAKVTDEPLTNYLDSQYFGKIYIGTPPQEFTVVFDTGSSNLWVPSVYCNSDACQNHHRFNPASSTTFRSTQEPLSIQYGTGSMEGVLGYDTVTVSQIVVPDQIFGLSTQEPGEIFTYSEFDGILGLGYPSLAEDQATPVFDNMMNKNLVAQDLFSVYMSRDSQGSMLILGAIDPSYYTGSLHWVPVTEQGYWQFSVDSITVNGQVVACEGGCQAILDTGTSLLVGPSYDIANIQSIIGATQGQYGEYDINCSNLSSMPTVVVHINGRQYPLPPSAYTNQDQGLCSSGFQSEGSDQLWILGDVFIREYYSVFDRGNNRVGLATAV
Turning to B3, the Degradation of intact alphaS1-casein (% of reference A) (% of reference A) came out at 204.

B4: bovine chymosin (CHY-MAX Plus from Chr. Hansen A/S) (protein)
chain: GEVASVPLTNYLDSQYFGKIYLGTPPQEFTVLFDTGSSDFWVPSIYCKSNACKNHQRFDPRKSSTFQNLGKPLSIHYGTGSMQGILGYDTVTVSNIVDIQQTVGLSTQEPGDVFTYAEFDGILGMAYPSLASEYSIPVFDNMMNRHLVAQDLFSVYMDRNGQESMLTLGAIDPSYYTGSLHWVPVTVQQYWQFTVDSVTISGVVVACEGGCQAILDTGTSKLVGPSSDILNIQQAIGATQNQYGEFDIDCDNLSYMPTVVFEINGKMYPLTPSAYTSQDQGFCTSGFQSENHSQKWILGDVFIREYYSVFDRANNLVGLAKAI
In the case of B4, the Degradation of intact alphaS1-casein (% of reference A) (% of reference A) came out at 100.

B5: aspartic protease or coagulant or chymosin represented by SEQ ID NO: 2 (protein)
chain: GKVARESLTNYLDCQYFGKIYIGTPPQEFTVVFDTGSSDLWVPSVYCNSDACQNHHRFDPSKSSTFQNMDKSLSIQYGTGSMQGLLGYDTVTVSNIVDRHQTVGLSTQEPGDVFTYSEFDGILGLAYPSLASEYSVPVFDNMMDRHLVAQDLFSVYMSRNEQGSMLTLGAIDRSYYTGSLHWIPVTVQEYWQFTVDRVTVDGVVVACDGGCQAILDTGTSMLVGPGSDIFNIQQAIGATEGQFGEFDIDCGRLSSMPTVVFEINGKKYPLPPSAYTSQDQGFCTSGFQGDYSSQQWILGDVFIREYYSVFDRASNRVGLAKAI
On to B5, for which the Degradation of intact alphaS1-casein (% of reference A) (% of reference A) was 71.

B6: aspartic protease represented by SEQ ID NO: 4 (protein)
chain: GEVASEPLTSYLDSQYFGKIYIGTPPQEFTVVFDTGSSDLWVPSVYCKSDACQNHQRFDPSMSSTFQNLGKPLSIQYGTGSMQGFLGYDTVTVSDIVDPQQTVGLSTQEPGDVFTYSEFDGILGLAYPSLASEYSVPVFDNMMNRHLVAQDLFSVYMDRNGQESMLTLGAIDPSYYTGSLHWVPVTLQKYWQFTVDSVTIGGVVVACDGGCQAILDTGTSMLVGPSSDILNIQMAIGATQNQYGEFDIDCGSLSSMPTVVFEINSRMYPLTPSAYTNQDQGFCTSGFQGENNSQQWILGDVFIREYYSVFDRANNRVGLAKAV
The protein B6 had a Degradation of intact alphaS1-casein (% of reference A) (% of reference A) of 105.
